*1 amine or outer side, *2 acyl side, *3 side chain or, on linkers, in order; H or OH if unused. Side-chain parts run from the residue outwards. The star is where a group is joined. C18 diacid = O=C(O)CCCCCCCCCCCCCCCCC(=O)*; γGlu = O=C(O)[C@H](CCC(=O)[*:2])N[*:1]; Isovaleryl = CC(C)CC(=O)*; Ahx = NCCCCCC(=O)O
T1: human NPY1 receptor (human, UniProt P25929 1-384)
T1 sequence (looked up): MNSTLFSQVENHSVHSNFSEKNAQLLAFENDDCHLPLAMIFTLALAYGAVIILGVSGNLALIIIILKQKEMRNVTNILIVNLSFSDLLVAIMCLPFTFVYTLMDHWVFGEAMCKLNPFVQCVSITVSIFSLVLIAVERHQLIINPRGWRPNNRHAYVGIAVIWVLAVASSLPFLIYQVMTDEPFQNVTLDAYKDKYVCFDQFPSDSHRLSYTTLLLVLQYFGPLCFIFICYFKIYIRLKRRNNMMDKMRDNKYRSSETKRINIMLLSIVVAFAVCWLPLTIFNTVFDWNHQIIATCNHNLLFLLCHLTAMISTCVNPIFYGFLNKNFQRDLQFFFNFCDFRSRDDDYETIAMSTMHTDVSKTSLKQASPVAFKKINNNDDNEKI

T2: human NPY5 receptor (human, UniProt Q15761 1-445)
T2 sequence (looked up): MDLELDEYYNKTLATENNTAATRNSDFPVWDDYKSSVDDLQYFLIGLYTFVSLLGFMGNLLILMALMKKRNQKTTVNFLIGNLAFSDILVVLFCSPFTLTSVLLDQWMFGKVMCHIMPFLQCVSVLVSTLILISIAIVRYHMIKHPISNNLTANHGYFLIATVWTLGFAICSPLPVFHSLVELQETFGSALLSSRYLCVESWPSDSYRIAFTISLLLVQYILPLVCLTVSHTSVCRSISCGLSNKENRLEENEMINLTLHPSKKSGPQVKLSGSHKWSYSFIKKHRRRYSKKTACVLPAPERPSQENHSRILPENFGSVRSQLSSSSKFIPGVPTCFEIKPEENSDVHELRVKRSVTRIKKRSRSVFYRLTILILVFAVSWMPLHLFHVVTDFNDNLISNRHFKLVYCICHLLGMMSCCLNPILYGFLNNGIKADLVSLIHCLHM

T3: human NPY2 receptor (human, UniProt P49146 1-381)
T3 sequence (looked up): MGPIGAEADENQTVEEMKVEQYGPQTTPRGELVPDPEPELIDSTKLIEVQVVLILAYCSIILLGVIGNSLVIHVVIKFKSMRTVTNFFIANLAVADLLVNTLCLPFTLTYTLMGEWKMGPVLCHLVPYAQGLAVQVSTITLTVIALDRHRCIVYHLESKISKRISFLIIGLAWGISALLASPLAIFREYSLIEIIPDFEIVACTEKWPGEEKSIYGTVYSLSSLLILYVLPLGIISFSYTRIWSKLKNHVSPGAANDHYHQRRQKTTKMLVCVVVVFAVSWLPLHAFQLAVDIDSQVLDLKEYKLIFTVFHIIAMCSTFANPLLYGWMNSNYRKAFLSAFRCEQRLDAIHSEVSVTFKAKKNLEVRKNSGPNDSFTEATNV


Experiments:
human NPY1 receptor = target: T1, human NPY1 receptor; test: cell-based or functional assay
human NPY5 receptor = target: T2, human NPY5 receptor; test: cell-based or functional assay
human NPY4 receptor = human NPY4 receptor (human, UniProt P50391 1-375); test: cell-based or functional assay
human NPY2 receptor [1] = target: T3, human NPY2 receptor; test: cell-based or functional assay
human NPY2 receptor [2] = target: T3, human NPY2 receptor; test: RLB: displacement of 125I-PYY(1-36) from hNPY2R membranes

Chain of human NPY4 receptor (P50391 whole entry): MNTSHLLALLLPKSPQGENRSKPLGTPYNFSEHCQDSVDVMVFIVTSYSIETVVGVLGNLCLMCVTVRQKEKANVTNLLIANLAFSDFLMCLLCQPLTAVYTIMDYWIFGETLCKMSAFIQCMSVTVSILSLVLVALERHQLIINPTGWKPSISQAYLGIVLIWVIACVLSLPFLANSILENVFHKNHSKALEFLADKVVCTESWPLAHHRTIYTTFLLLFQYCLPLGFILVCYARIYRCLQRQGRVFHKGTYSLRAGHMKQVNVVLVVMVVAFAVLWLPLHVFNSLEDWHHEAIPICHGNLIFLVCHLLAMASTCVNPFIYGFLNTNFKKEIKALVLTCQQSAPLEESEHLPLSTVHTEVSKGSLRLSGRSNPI

Row | Binder | EC50, HTRF cAMP Gi assay (human NPY1 receptor) | EC50, HTRF cAMP Gi assay (human NPY5 receptor) | EC50, HTRF cAMP Gi assay (human NPY4 receptor) | EC50, HTRF cAMP Gi assay (human NPY2 receptor [1]) | Ki (human NPY2 receptor [2])
1 | Isovaleryl-APEK([Ahx-γGlu-C18 diacid])PEADASPEEIQRYYISLRHYYNWLTRQRY-NH2 (SMILES CC[C@H](C)[C@H](NC(=O)[C@H](Cc1ccc(O)cc1)NC(=O)[C@H](Cc1ccc(O)cc1)NC(=O)[C@H](CCCNC(=N)N)NC(=O)[C@H](CCC(N)=O)NC(=O)[C@@H](NC(=O)[C@H](CCC(=O)O)NC(=O)[C@H](CCC(=O)O)NC(=O)[C@@H]1CCCN1C(=O)[C@H](CO)NC(=O)[C@H](C)NC(=O)[C@H](CC(=O)O)NC(=O)[C@H](C)NC(=O)[C@H](CCC(=O)O)NC(=O)[C@@H]1CCCN1C(=O)[C@H](CCCCNC(=O)CCCCCNC(=O)CC[C@H](NC(=O)CCCCCCCCCCCCCCCCC(=O)O)C(=O)O)NC(=O)[C@H](CCC(=O)O)NC(=O)[C@@H]1CCCN1C(=O)[C@H](C)NC(=O)CC(C)C)[C@@H](C)CC)C(=O)N[C@@H](CO)C(=O)N[C@@H](CC(C)C)C(=O)N[C@@H](CCCNC(=N)N)C(=O)N[C@@H](Cc1c[nH]cn1)C(=O)N[C@@H](Cc1ccc(O)cc1)C(=O)N[C@@H](Cc1ccc(O)cc1)C(=O)N[C@@H](CC(N)=O)C(=O)N[C@@H](Cc1c[nH]c2ccccc12)C(=O)N[C@@H](CC(C)C)C(=O)N[C@H](C(=O)N[C@@H](CCCNC(=N)N)C(=O)N[C@@H](CCC(N)=O)C(=O)N[C@@H](CCCNC(=N)N)C(=O)N[C@@H](Cc1ccc(O)cc1)C(N)=O)[C@@H](C)O) [Compound 11] | > 5000 nM | > 5000 nM | > 5000 nM | 0.136 nM | 1.4 nM
2 | Isovaleryl-APEK([Ahx-γGlu-C18 diacid])PEEDASEEEIQRYYVSLRHYYNWLTRQRY-NH2 (SMILES CC[C@H](C)[C@H](NC(=O)[C@H](CCC(=O)O)NC(=O)[C@H](CCC(=O)O)NC(=O)[C@H](CCC(=O)O)NC(=O)[C@H](CO)NC(=O)[C@H](C)NC(=O)[C@H](CC(=O)O)NC(=O)[C@H](CCC(=O)O)NC(=O)[C@H](CCC(=O)O)NC(=O)[C@@H]1CCCN1C(=O)[C@H](CCCCNC(=O)CCCCCNC(=O)CC[C@H](NC(=O)CCCCCCCCCCCCCCCCC(=O)O)C(=O)O)NC(=O)[C@H](CCC(=O)O)NC(=O)[C@@H]1CCCN1C(=O)[C@H](C)NC(=O)CC(C)C)C(=O)N[C@@H](CCC(N)=O)C(=O)N[C@@H](CCCNC(=N)N)C(=O)N[C@@H](Cc1ccc(O)cc1)C(=O)N[C@@H](Cc1ccc(O)cc1)C(=O)N[C@H](C(=O)N[C@@H](CO)C(=O)N[C@@H](CC(C)C)C(=O)N[C@@H](CCCNC(=N)N)C(=O)N[C@@H](Cc1c[nH]cn1)C(=O)N[C@@H](Cc1ccc(O)cc1)C(=O)N[C@@H](Cc1ccc(O)cc1)C(=O)N[C@@H](CC(N)=O)C(=O)N[C@@H](Cc1c[nH]c2ccccc12)C(=O)N[C@@H](CC(C)C)C(=O)N[C@H](C(=O)N[C@@H](CCCNC(=N)N)C(=O)N[C@@H](CCC(N)=O)C(=O)N[C@@H](CCCNC(=N)N)C(=O)N[C@@H](Cc1ccc(O)cc1)C(N)=O)[C@@H](C)O)C(C)C) [Compound 55] | > 5000 nM | > 5000 nM | > 5000 nM | 0.352 nM | 2.96 nM
3 | Isovaleryl-APEK([Ahx-γGlu-C18 diacid])PEEDAEPEEVQRYYVSLRHYYNWLTRQRY-NH2 (SMILES CC(C)CC(=O)N[C@@H](C)C(=O)N1CCC[C@H]1C(=O)N[C@@H](CCC(=O)O)C(=O)N[C@@H](CCCCNC(=O)CCCCCNC(=O)CC[C@H](NC(=O)CCCCCCCCCCCCCCCCC(=O)O)C(=O)O)C(=O)N1CCC[C@H]1C(=O)N[C@@H](CCC(=O)O)C(=O)N[C@@H](CCC(=O)O)C(=O)N[C@@H](CC(=O)O)C(=O)N[C@@H](C)C(=O)N[C@@H](CCC(=O)O)C(=O)N1CCC[C@H]1C(=O)N[C@@H](CCC(=O)O)C(=O)N[C@@H](CCC(=O)O)C(=O)N[C@H](C(=O)N[C@@H](CCC(N)=O)C(=O)N[C@@H](CCCNC(=N)N)C(=O)N[C@@H](Cc1ccc(O)cc1)C(=O)N[C@@H](Cc1ccc(O)cc1)C(=O)N[C@H](C(=O)N[C@@H](CO)C(=O)N[C@@H](CC(C)C)C(=O)N[C@@H](CCCNC(=N)N)C(=O)N[C@@H](Cc1c[nH]cn1)C(=O)N[C@@H](Cc1ccc(O)cc1)C(=O)N[C@@H](Cc1ccc(O)cc1)C(=O)N[C@@H](CC(N)=O)C(=O)N[C@@H](Cc1c[nH]c2ccccc12)C(=O)N[C@@H](CC(C)C)C(=O)N[C@H](C(=O)N[C@@H](CCCNC(=N)N)C(=O)N[C@@H](CCC(N)=O)C(=O)N[C@@H](CCCNC(=N)N)C(=O)N[C@@H](Cc1ccc(O)cc1)C(N)=O)[C@@H](C)O)C(C)C)C(C)C) [Compound 53] | > 5000 nM | > 5000 nM | > 5000 nM | 0.352 nM | 3.07 nM

Second part, the binder after the results:

Row | EC50, HTRF cAMP Gi assay (human NPY1 receptor) | EC50, HTRF cAMP Gi assay (human NPY5 receptor) | EC50, HTRF cAMP Gi assay (human NPY4 receptor) | EC50, HTRF cAMP Gi assay (human NPY2 receptor [1]) | Ki (human NPY2 receptor [2]) | Binder
4 | > 5000 nM | > 5000 nM | > 5000 nM | – | 2.73 nM | Isovaleryl-APEK([Ahx-γGlu-C18 diacid])PEAEASPEELQRYYVSLRHYYNWLTRQRY-NH2 [Compound 122]
5 | > 5000 nM | > 5000 nM | > 5000 nM | 0.161 nM | 1 nM | Isovaleryl-APEK([Ahx-γGlu-C18 diacid])PPEDAEPEEIQRYYVSLRHYYNWLTRQRY-NH2 (SMILES CC[C@H](C)[C@H](NC(=O)[C@H](CCC(=O)O)NC(=O)[C@H](CCC(=O)O)NC(=O)[C@@H]1CCCN1C(=O)[C@H](CCC(=O)O)NC(=O)[C@H](C)NC(=O)[C@H](CC(=O)O)NC(=O)[C@H](CCC(=O)O)NC(=O)[C@@H]1CCCN1C(=O)[C@@H]1CCCN1C(=O)[C@H](CCCCNC(=O)CCCCCNC(=O)CC[C@H](NC(=O)CCCCCCCCCCCCCCCCC(=O)O)C(=O)O)NC(=O)[C@H](CCC(=O)O)NC(=O)[C@@H]1CCCN1C(=O)[C@H](C)NC(=O)CC(C)C)C(=O)N[C@@H](CCC(N)=O)C(=O)N[C@@H](CCCNC(=N)N)C(=O)N[C@@H](Cc1ccc(O)cc1)C(=O)N[C@@H](Cc1ccc(O)cc1)C(=O)N[C@H](C(=O)N[C@@H](CO)C(=O)N[C@@H](CC(C)C)C(=O)N[C@@H](CCCNC(=N)N)C(=O)N[C@@H](Cc1c[nH]cn1)C(=O)N[C@@H](Cc1ccc(O)cc1)C(=O)N[C@@H](Cc1ccc(O)cc1)C(=O)N[C@@H](CC(N)=O)C(=O)N[C@@H](Cc1c[nH]c2ccccc12)C(=O)N[C@@H](CC(C)C)C(=O)N[C@H](C(=O)N[C@@H](CCCNC(=N)N)C(=O)N[C@@H](CCC(N)=O)C(=O)N[C@@H](CCCNC(=N)N)C(=O)N[C@@H](Cc1ccc(O)cc1)C(N)=O)[C@@H](C)O)C(C)C) [Compound 118]
6 | > 5000 nM | > 5000 nM | > 5000 nM | 0.186 nM | 0.95 nM | Isovaleryl-APAK([Ahx-γGlu-C18 diacid])PEEDATPEEIQRYYVSLRHYYNWLTRQRY-NH2 (SMILES CC[C@H](C)[C@H](NC(=O)[C@H](CCC(=O)O)NC(=O)[C@H](CCC(=O)O)NC(=O)[C@@H]1CCCN1C(=O)[C@@H](NC(=O)[C@H](C)NC(=O)[C@H](CC(=O)O)NC(=O)[C@H](CCC(=O)O)NC(=O)[C@H](CCC(=O)O)NC(=O)[C@@H]1CCCN1C(=O)[C@H](CCCCNC(=O)CCCCCNC(=O)CC[C@H](NC(=O)CCCCCCCCCCCCCCCCC(=O)O)C(=O)O)NC(=O)[C@H](C)NC(=O)[C@@H]1CCCN1C(=O)[C@H](C)NC(=O)CC(C)C)[C@@H](C)O)C(=O)N[C@@H](CCC(N)=O)C(=O)N[C@@H](CCCNC(=N)N)C(=O)N[C@@H](Cc1ccc(O)cc1)C(=O)N[C@@H](Cc1ccc(O)cc1)C(=O)N[C@H](C(=O)N[C@@H](CO)C(=O)N[C@@H](CC(C)C)C(=O)N[C@@H](CCCNC(=N)N)C(=O)N[C@@H](Cc1c[nH]cn1)C(=O)N[C@@H](Cc1ccc(O)cc1)C(=O)N[C@@H](Cc1ccc(O)cc1)C(=O)N[C@@H](CC(N)=O)C(=O)N[C@@H](Cc1c[nH]c2ccccc12)C(=O)N[C@@H](CC(C)C)C(=O)N[C@H](C(=O)N[C@@H](CCCNC(=N)N)C(=O)N[C@@H](CCC(N)=O)C(=O)N[C@@H](CCCNC(=N)N)C(=O)N[C@@H](Cc1ccc(O)cc1)C(N)=O)[C@@H](C)O)C(C)C) [Compound 114]
